Experimental data: PMC10397247
Like-named read-outs stand apart in the source and are kept apart here. Blank lines part the entries; values can stand above or below the binder they belong to.

What was measured:
4H2774-AA = target: T1, 4H2774-AA; assay: two-hybrid library CCmax; details: mean of both orientations;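 further: natural log of median RNA to DNA barcode read ratio; higher means stronger binding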
T1 chain: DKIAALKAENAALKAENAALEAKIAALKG

4H2947-AA = target: T2, 4H2947-AA; assay: two-hybrid library CCmax; details: mean of both orientations;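 further: natural log of median RNA to DNA barcode read ratio; higher means stronger binding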
T2 chain: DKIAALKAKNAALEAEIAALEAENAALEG

4H2621-AA = target: T3, 4H2621-AA; assay: two-hybrid library CCmax; details: mean of both orientations;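 further: natural log of median RNA to DNA barcode read ratio; higher means stronger binding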
T3 chain: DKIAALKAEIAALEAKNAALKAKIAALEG

4H324-AA = target: T4, 4H324-AA; assay: two-hybrid library CCmax; details: mean of both orientations;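 further: natural log of median RNA to DNA barcode read ratio; higher means stronger binding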
T4 chain: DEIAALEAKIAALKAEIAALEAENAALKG

4H3619-AA = target: T5, 4H3619-AA; assay: two-hybrid library CCmax; details: mean of both orientations
T5 chain: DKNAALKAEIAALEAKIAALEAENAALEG

4H3629-AA = target: T6, 4H3629-AA; assay: two-hybrid library CCmax; details: mean of both orientations
T6 chain: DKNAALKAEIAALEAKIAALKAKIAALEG

4H3129-AA = target: T7, 4H3129-AA; assay: two-hybrid library CCmax; details: mean of both orientations
T7 chain: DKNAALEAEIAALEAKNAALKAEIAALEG

4H3777-AA = target: T8, 4H3777-AA; assay: two-hybrid library CCmax; details: mean of both orientations
T8 chain: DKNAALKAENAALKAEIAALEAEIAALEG

4H1593-AA = target: T9, 4H1593-AA; assay: two-hybrid library CCmax; details: mean of both orientations
T9 chain: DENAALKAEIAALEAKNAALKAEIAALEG

4H3969-AA = target: T10, 4H3969-AA; assay: two-hybrid library CCmax; details: mean of both orientations
T10 chain: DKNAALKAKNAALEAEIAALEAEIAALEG

4H3449-AA = target: T11, 4H3449-AA; assay: two-hybrid library CCmax; details: mean of both orientations
T11 chain: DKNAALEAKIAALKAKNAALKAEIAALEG

4H1449-AA = target: T12, 4H1449-AA; assay: two-hybrid library CCmax; details: mean of both orientations
T12 chain: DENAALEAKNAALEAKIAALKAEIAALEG

4H341-AA = target: T13, 4H341-AA; assay: two-hybrid library CCmax; details: mean of both orientations
T13 chain: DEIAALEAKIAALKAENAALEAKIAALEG

4H1878-AA = target: T14, 4H1878-AA; assay: two-hybrid library CCmax; details: mean of both orientations
T14 chain: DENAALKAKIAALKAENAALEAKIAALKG

4H235-AA = target: T15, 4H235-AA; assay: two-hybrid library CCmax; details: mean of both orientations
T15 chain: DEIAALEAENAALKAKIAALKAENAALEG

4H380-AA = target: T16, 4H380-AA; assay: two-hybrid library CCmax; details: mean of both orientations
T16 chain: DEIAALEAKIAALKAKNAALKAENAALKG

4H249-AA = target: T17, 4H249-AA; assay: two-hybrid library CCmax
T17 chain: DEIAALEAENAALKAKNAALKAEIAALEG

4H2699-AA = target: T18, 4H2699-AA; assay: two-hybrid library CCmax; details: mean of both orientations
T18 chain: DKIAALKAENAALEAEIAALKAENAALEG

4H1558-AA = target: T19, 4H1558-AA; assay: two-hybrid library CCmax; details: mean of both orientations
T19 chain: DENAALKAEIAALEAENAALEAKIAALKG

4H3782-AA = target: T20, 4H3782-AA; assay: two-hybrid library CCmax; details: mean of both orientations
T20 chain: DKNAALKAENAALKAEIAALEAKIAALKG

4H1384-AA = target: T21, 4H1384-AA; assay: two-hybrid library CCmax
T21 chain: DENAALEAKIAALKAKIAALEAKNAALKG

4H2604-AA = target: T22, 4H2604-AA; assay: two-hybrid library CCmax; details: mean of both orientations
T22 chain: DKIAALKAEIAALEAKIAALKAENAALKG

4H3595-AA = target: T23, 4H3595-AA; assay: two-hybrid library CCmax; details: mean of both orientations
T23 chain: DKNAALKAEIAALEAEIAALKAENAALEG

4H63-AA = target: T24, 4H63-AA; assay: two-hybrid library CCmax; details: mean of both orientations
T24 chain: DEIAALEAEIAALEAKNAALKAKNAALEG

4H1360-AA = target: T25, 4H1360-AA; assay: two-hybrid library CCmax; details: mean of both orientations
T25 chain: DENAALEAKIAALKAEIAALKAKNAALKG

4H3414-AA = target: T26, 4H3414-AA; assay: two-hybrid library CCmax; details: mean of both orientations
T26 chain: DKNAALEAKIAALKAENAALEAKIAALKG

4H3049-AA = target: T27, 4H3049-AA; assay: two-hybrid library CCmax; details: mean of both orientations
T27 chain: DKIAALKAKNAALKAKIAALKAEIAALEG

4H446-AA = target: T28, 4H446-AA; assay: two-hybrid library CCmax; details: mean of both orientations
T28 chain: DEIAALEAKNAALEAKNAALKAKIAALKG

4H432-AA = target: T29, 4H432-AA; assay: two-hybrid library CCmax; details: mean of both orientations
T29 chain: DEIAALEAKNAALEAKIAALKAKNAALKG

4H464-AA = target: T30, 4H464-AA; assay: two-hybrid library CCmax; details: mean of both orientations
T30 chain: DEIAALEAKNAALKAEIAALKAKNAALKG

4H483-AA = target: T31, 4H483-AA; assay: two-hybrid library CCmax; details: mean of both orientations
T31 chain: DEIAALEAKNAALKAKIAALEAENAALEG

4H2580-AA = target: T32, 4H2580-AA; assay: two-hybrid library CCmax; details: mean of both orientations
T32 chain: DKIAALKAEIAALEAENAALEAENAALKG

4H2961-AA = target: T33, 4H2961-AA; assay: two-hybrid library CCmax; details: mean of both orientations
T33 chain: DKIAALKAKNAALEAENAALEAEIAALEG

4H1454-AA = target: T34, 4H1454-AA; assay: two-hybrid library CCmax; details: mean of both orientations
T34 chain: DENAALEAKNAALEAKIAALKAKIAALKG

4H1913-AA = target: T35, 4H1913-AA; assay: two-hybrid library CCmax; details: mean of both orientations
T35 chain: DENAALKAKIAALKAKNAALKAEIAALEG

4H2760-AA = target: T36, 4H2760-AA; assay: two-hybrid library CCmax; details: mean of both orientations
T36 chain: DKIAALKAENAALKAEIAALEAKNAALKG

4H3094-AA = target: T37, 4H3094-AA; assay: two-hybrid library CCmax; details: mean of both orientations
T37 chain: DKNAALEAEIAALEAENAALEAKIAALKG

4H2728-AA = target: T38, 4H2728-AA; assay: two-hybrid library CCmax; details: mean of both orientations
T38 chain: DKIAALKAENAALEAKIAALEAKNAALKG

4H2903-AA = target: T39, 4H2903-AA; assay: two-hybrid library CCmax; details: mean of both orientations
T39 chain: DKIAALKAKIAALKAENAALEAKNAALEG

4H3915-AA = target: T40, 4H3915-AA; assay: two-hybrid library CCmax; details: mean of both orientations
T40 chain: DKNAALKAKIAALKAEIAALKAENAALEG

P2-AA-1HGe-A = target: T41, P2-AA-1HGe-A; assay: two-hybrid library CCmax
T41 chain: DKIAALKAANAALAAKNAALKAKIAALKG

4H3974-AA = target: T42, 4H3974-AA; assay: two-hybrid library CCmax; details: mean of both orientations
T42 chain: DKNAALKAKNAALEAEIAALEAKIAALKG

4H3939-AA = target: T43, 4H3939-AA; assay: two-hybrid library CCmax; details: mean of both orientations
T43 chain: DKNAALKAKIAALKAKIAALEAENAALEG

P2mSN = target: T44, P2mSN; assay: two-hybrid library CCNG1
T44 chain: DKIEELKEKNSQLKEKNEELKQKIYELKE

P8mSN = target: T45, P8mSN; assay: two-hybrid library CCNG1
T45 chain: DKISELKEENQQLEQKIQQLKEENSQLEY

P1mSN = target: T46, P1mSN; assay: two-hybrid library CCNG1
T46 chain: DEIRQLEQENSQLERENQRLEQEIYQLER

P3mSN = target: T47, P3mSN; assay: two-hybrid library CCNG1
T47 chain: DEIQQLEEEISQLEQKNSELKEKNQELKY

P5mSN = target: T48, P5mSN; assay: two-hybrid library CCNG1
T48 chain: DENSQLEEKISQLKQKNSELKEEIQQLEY

P7mSN = target: T49, P7mSN; assay: two-hybrid library CCNG1
T49 chain: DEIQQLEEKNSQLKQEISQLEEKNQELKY

P9mSN = target: T50, P9mSN; assay: two-hybrid library CCNG1
T50 chain: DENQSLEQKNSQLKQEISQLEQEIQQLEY

P6mSN = target: T51, P6mSN; assay: two-hybrid library CCNG1
T51 chain: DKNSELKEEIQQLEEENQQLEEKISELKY

P4mSN = target: T52, P4mSN; assay: two-hybrid library CCNG1
T52 chain: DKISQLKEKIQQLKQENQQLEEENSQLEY

interaction score (4H2774-AA): -2.01 | interaction score (4H2947-AA): -1.49 | interaction score (4H2621-AA): 2.18 | interaction score (4H324-AA): 1.84 | interaction score (4H3619-AA): 0.504 | interaction score (4H3629-AA): 2.08 | interaction score (4H3129-AA): 0.123 | interaction score (4H3777-AA): -0.808 | interaction score (4H1593-AA): 0.813 | interaction score (4H3969-AA): -1.13 | interaction score (4H3449-AA): -0.531 | interaction score (4H1449-AA): -0.154 | interaction score (4H341-AA): -0.142 | interaction score (4H1878-AA): -0.906 | interaction score (4H235-AA): -2.02 | interaction score (4H380-AA): -0.754 | interaction score (4H249-AA; mean of both orientations): -2.14 | interaction score (4H2699-AA): -1.39 | interaction score (4H1558-AA): -0.218 | interaction score (4H3782-AA): 0.414 | interaction score (4H1384-AA; mean of both orientations): 1.03 | interaction score (4H2604-AA): 1.42 | interaction score (4H3595-AA): 1.05 | interaction score (4H63-AA): -0.724 | interaction score (4H1360-AA): 0.392 | interaction score (4H3414-AA): -0.92 | interaction score (4H3049-AA): -0.0176 | interaction score (4H446-AA): -1.37 | interaction score (4H432-AA): -1.21 | interaction score (4H464-AA): -0.554 | interaction score (4H483-AA): -1.07 | interaction score (4H2580-AA): -0.799 | interaction score (4H2961-AA): -2.4 | interaction score (4H1454-AA): -0.224 | interaction score (4H1913-AA): -0.124 | interaction score (4H2760-AA): -0.562 | interaction score (4H3094-AA): -0.703 | interaction score (4H2728-AA): -1.04 | interaction score (4H2903-AA): -0.278 | interaction score (4H3915-AA): 0.312 | interaction score (P2-AA-1HGe-A): -1.79 | interaction score (4H3974-AA): 0.171 | interaction score (4H3939-AA): 0.491
B1: 4H1349-AA (peptide)
chain: DENAALEAKIAALKAEIAALEAKIAALEG

interaction score (4H2774-AA): -1.81 | interaction score (4H2947-AA): -1.05 | interaction score (4H2621-AA): -0.862 | interaction score (4H324-AA): 0.82 | interaction score (4H3619-AA): 2.13 | interaction score (4H3629-AA): 0.973 | interaction score (4H3777-AA): 0.578 | interaction score (4H1593-AA): -1.48 | interaction score (4H3449-AA): -1.82 | interaction score (4H1449-AA): -1.1 | interaction score (4H341-AA): -0.177 | interaction score (4H1878-AA): -1.08 | interaction score (4H235-AA): -1.3 | interaction score (4H380-AA): -1.4 | interaction score (4H249-AA): -1.81 | interaction score (4H1384-AA): 0.25 | interaction score (4H2604-AA): 1.45 | interaction score (4H63-AA): -0.475 | interaction score (4H3049-AA): -0.361 | interaction score (4H446-AA): -2.33 | interaction score (4H432-AA): -1.33 | interaction score (4H2580-AA): 0.35 | interaction score (4H2961-AA): -1.37 | interaction score (4H2760-AA): -1.74 | interaction score (4H3094-AA): -0.731 | interaction score (4H2903-AA): -0.437 | interaction score (4H3915-AA): -0.264 | interaction score (4H3974-AA): 0.121
B2: 4H1384-AA (peptide)
chain: DENAALEAKIAALKAKIAALEAKNAALKG

interaction score (P2mSN): 1.73 | interaction score (P8mSN): -1.17 | interaction score (P1mSN): -1.23 | interaction score (P3mSN): -1.95 | interaction score (P5mSN): -1.04 | interaction score (P7mSN): -1.01 | interaction score (P9mSN): -2.07 | interaction score (P6mSN): -0.582 | interaction score (P4mSN): -1.09
B3: P1mSN (peptide)
chain: DEIRQLEQENSQLERENQRLEQEIYQLER
